Data: the supplement of paper PMC9112550, “Optimization of the antimicrobial peptide Bac7 by deep mutational scanning” (BMC Biology, 2022)

test system: Escherichia coli TOP10; experiment: shrunken log2 fold change of peptide-encoding DNA abundance (4.5 h post-induction vs induction); higher = less antimicrobial activity (less host growth inhibition); settings: time post-induction: 4.5 h; library: site-saturation at positions 5, 18, 19, 20
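Note: peptides expressed intracellularly from a pBAD plasmid library in pooled LB shake-flask culture, induced with 0.3% L-arabinose, DNA abundance read by NGS, three biological replicates, DESeq2 with apeglm shrinkage.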

In order of rising “shrunken log2 fold change” value:
1. RRIRHRPPRLPRPRPRPMHIPRP  -1.93
2. RRIRFRPPRLPRPRPRPNQLPRP  -1.2
3. RRIRIRPPRLPRPRPRPYKSPRP  -1.14
4. RRIRLRPPRLPRPRPRPYCCPRP  -1.03
5. RRIRERPPRLPRPRPRPNMYPRP  -0.976
6. RRIRIRPPRLPRPRPRPILDPRP  -0.797
7. RRIRCRPPRLPRPRPRPFCYPRP  -0.733
8. RRIRFRPPRLPRPRPRPLYRPRP  -0.702
9. RRIRCRPPRLPRPRPRPQYDPRP  -0.644
10. RRIRIRPPRLPRPRPRPHTVPRP  -0.588
11. RRIRPRPPRLPRPRPRPDHHPRP  -0.543
12. RRIRGRPPRLPRPRPRPYNMPRP  -0.531
13. RRIRIRPPRLPRPRPRPTCHPRP  -0.467
14. RRIRERPPRLPRPRPRPQFKPRP  -0.444
15. RRIRFRPPRLPRPRPRPTEIPRP  -0.413
16. RRIRPRPPRLPRPRPRPNMPPRP  -0.405
17. RRIRSRPPRLPRPRPRPEHMPRP  -0.391
18. RRIRMRPPRLPRPRPRPFVPPRP  -0.375
19. RRIRCRPPRLPRPRPRPNTKPRP  -0.358
20. RRIRCRPPRLPRPRPRPNANPRP  -0.353
21. RRIRNRPPRLPRPRPRPWHIPRP  -0.325
22. RRIRERPPRLPRPRPRPHHWPRP  -0.315
23. RRIRERPPRLPRPRPRPVIRPRP  -0.305
24. RRIRVRPPRLPRPRPRPSLSPRP  -0.303
25. RRIRYRPPRLPRPRPRPMFCPRP  -0.297
26. RRIRVRPPRLPRPRPRPIRQPRP  -0.294
27. RRIRQRPPRLPRPRPRPYGGPRP  -0.29
28. RRIRCRPPRLPRPRPRPAYEPRP  -0.28
29. RRIRMRPPRLPRPRPRPYPWPRP  -0.274
30. RRIRFRPPRLPRPRPRPCRDPRP  -0.274
31. RRIRIRPPRLPRPRPRPFFEPRP  -0.267
32. RRIRQRPPRLPRPRPRPQDAPRP  -0.253
33. RRIRWRPPRLPRPRPRPDKHPRP  -0.243
34. RRIRERPPRLPRPRPRPGMMPRP  -0.235
35. RRIRNRPPRLPRPRPRPLSVPRP  -0.21
36. RRIRIRPPRLPRPRPRPMSAPRP  -0.205
37. RRIRYRPPRLPRPRPRPRINPRP  -0.196
38. RRIRFRPPRLPRPRPRPMTIPRP  -0.182
39. RRIRYRPPRLPRPRPRPIIGPRP  -0.178
40. RRIRYRPPRLPRPRPRPLRHPRP  -0.177
41. RRIRIRPPRLPRPRPRPQIVPRP  -0.167
42. RRIRARPPRLPRPRPRPKIYPRP  -0.161
43. RRIRGRPPRLPRPRPRPENYPRP  -0.144
44. RRIRPRPPRLPRPRPRPYGYPRP  -0.138
45. RRIRWRPPRLPRPRPRPTYTPRP  -0.136
46. RRIRDRPPRLPRPRPRPCQWPRP  -0.134
47. RRIRVRPPRLPRPRPRPKEMPRP  -0.131
48. RRIRRRPPRLPRPRPRPHYVPRP  -0.13
49. RRIRNRPPRLPRPRPRPLEVPRP  -0.118
50. RRIRTRPPRLPRPRPRPVMWPRP  -0.11
51. RRIRSRPPRLPRPRPRPWTGPRP  -0.105
52. RRIRQRPPRLPRPRPRPQTVPRP  -0.0925
53. RRIRARPPRLPRPRPRPQQGPRP  -0.0917
54. RRIRMRPPRLPRPRPRPNRPPRP  -0.0884
55. RRIRRRPPRLPRPRPRPYPNPRP  -0.0882
56. RRIRPRPPRLPRPRPRPKLIPRP  -0.0783
57. RRIRERPPRLPRPRPRPWYKPRP  -0.0738
58. RRIRLRPPRLPRPRPRPYTRPRP  -0.0648
59. RRIRTRPPRLPRPRPRPWKNPRP  -0.0599
60. RRIRARPPRLPRPRPRPHLLPRP  -0.0598
61. RRIRSRPPRLPRPRPRPAFTPRP  -0.0573
62. RRIRRRPPRLPRPRPRPYWCPRP  -0.0451
63. RRIRERPPRLPRPRPRPQQEPRP  -0.0361
64. RRIRMRPPRLPRPRPRPIFMPRP  -0.0298
65. RRIRIRPPRLPRPRPRPCNTPRP  -0.0252
66. RRIRKRPPRLPRPRPRPYTDPRP  -0.0224
67. RRIRERPPRLPRPRPRPPWSPRP  -0.0222
68. RRIRLRPPRLPRPRPRPYHSPRP  -0.018
69. RRIRKRPPRLPRPRPRPIVRPRP  -0.0167
70. RRIRDRPPRLPRPRPRPCQAPRP  -0.0133
71. RRIRDRPPRLPRPRPRPWNYPRP  -0.0121
72. RRIRRRPPRLPRPRPRPNSPPRP  -0.0118
73. RRIRKRPPRLPRPRPRPMGFPRP  -0.00871
74. RRIRQRPPRLPRPRPRPLQKPRP  -0.0062
75. RRIRGRPPRLPRPRPRPYACPRP  -0.00589
76. RRIRHRPPRLPRPRPRPWGLPRP  -0.00494
77. RRIRTRPPRLPRPRPRPMHHPRP  -0.00407
78. RRIRQRPPRLPRPRPRPTSWPRP  -0.00172
79. RRIRDRPPRLPRPRPRPDDPPRP  -0.00152
80. RRIRNRPPRLPRPRPRPCESPRP  -0.00141
81. RRIRKRPPRLPRPRPRPEQMPRP  -0.000598
82. RRIRDRPPRLPRPRPRPMAIPRP  0.00911
83. RRIRHRPPRLPRPRPRPGHDPRP  0.0104
84. RRIRQRPPRLPRPRPRPDHLPRP  0.0112
85. RRIRDRPPRLPRPRPRPLQVPRP  0.0133
86. RRIRFRPPRLPRPRPRPNATPRP  0.0167
87. RRIRFRPPRLPRPRPRPDEAPRP  0.0246
88. RRIRFRPPRLPRPRPRPFDRPRP  0.0332
89. RRIRGRPPRLPRPRPRPNKWPRP  0.0346
90. RRIRQRPPRLPRPRPRPGHRPRP  0.0349
91. RRIRKRPPRLPRPRPRPYDSPRP  0.0392
92. RRIRGRPPRLPRPRPRPYCYPRP  0.0406
93. RRIRMRPPRLPRPRPRPTMLPRP  0.0475
94. RRIRKRPPRLPRPRPRPHILPRP  0.0523
95. RRIRRRPPRLPRPRPRPSEDPRP  0.0524
96. RRIRARPPRLPRPRPRPCSHPRP  0.0574
97. RRIRWRPPRLPRPRPRPKRCPRP  0.0577
98. RRIRARPPRLPRPRPRPQYAPRP  0.0596
99. RRIRSRPPRLPRPRPRPRSVPRP  0.0603
100. RRIRPRPPRLPRPRPRPVDHPRP  0.0611
101. RRIRCRPPRLPRPRPRPNPSPRP  0.0638
102. RRIRPRPPRLPRPRPRPEMAPRP  0.0664
103. RRIRHRPPRLPRPRPRPLPLPRP  0.0701
104. RRIRFRPPRLPRPRPRPLQFPRP  0.0763
105. RRIRLRPPRLPRPRPRPPEDPRP  0.0763
106. RRIRWRPPRLPRPRPRPDILPRP  0.0776
107. RRIRMRPPRLPRPRPRPGHEPRP  0.086
108. RRIRIRPPRLPRPRPRPEAQPRP  0.0863
109. RRIRIRPPRLPRPRPRPVKCPRP  0.101
110. RRIRDRPPRLPRPRPRPWPTPRP  0.104
111. RRIRVRPPRLPRPRPRPHQIPRP  0.12
112. RRIRTRPPRLPRPRPRPGAWPRP  0.12
113. RRIRERPPRLPRPRPRPAQHPRP  0.124
114. RRIRTRPPRLPRPRPRPVQRPRP  0.132
115. RRIRLRPPRLPRPRPRPAVFPRP  0.142
116. RRIRSRPPRLPRPRPRPPKGPRP  0.144
117. RRIRGRPPRLPRPRPRPKACPRP  0.145
118. RRIRKRPPRLPRPRPRPWCFPRP  0.164
119. RRIRTRPPRLPRPRPRPLPGPRP  0.164
120. RRIRIRPPRLPRPRPRPACEPRP  0.17
121. RRIRSRPPRLPRPRPRPSRWPRP  0.188
122. RRIRWRPPRLPRPRPRPQFAPRP  0.189
123. RRIRSRPPRLPRPRPRPPKHPRP  0.2
124. RRIRVRPPRLPRPRPRPPSGPRP  0.208
125. RRIRPRPPRLPRPRPRPMWLPRP  0.217
126. RRIRRRPPRLPRPRPRPIDAPRP  0.227
127. RRIRARPPRLPRPRPRPKSNPRP  0.253
128. RRIRKRPPRLPRPRPRPCWWPRP  0.284
129. RRIRARPPRLPRPRPRPPDIPRP  0.289
130. RRIRQRPPRLPRPRPRPPSCPRP  0.348
131. RRIRPRPPRLPRPRPRPTCWPRP  0.349
132. RRIRRRPPRLPRPRPRPHCAPRP  0.419
133. RRIRDRPPRLPRPRPRPAKPPRP  0.419
134. RRIRSRPPRLPRPRPRPPPFPRP  0.449
135. RRIRFRPPRLPRPRPRPRGRPRP  0.454
136. RRIRYRPPRLPRPRPRPAAAPRP  0.455
137. RRIRMRPPRLPRPRPRPLVDPRP  0.526
138. RRIRERPPRLPRPRPRPKERPRP  0.547
139. RRIRKRPPRLPRPRPRPVEAPRP  0.657
140. RRIRARPPRLPRPRPRPVSRPRP  0.661
141. RRIRMRPPRLPRPRPRPTMCPRP  0.674
142. RRIRDRPPRLPRPRPRPGGCPRP  0.687
143. RRIRWRPPRLPRPRPRPDPRPRP  0.751
144. RRIRMRPPRLPRPRPRPTHFPRP  0.86
145. RRIRARPPRLPRPRPRPTRMPRP  0.865
146. RRIRGRPPRLPRPRPRPPSPPRP  1.01
147. RRIRARPPRLPRPRPRPGEGPRP  1.02
148. RRIRSRPPRLPRPRPRPVPMPRP  1.32
149. RRIRARPPRLPRPRPRPVAAPRP  1.54
150. RRIRMRPPRLPRPRPRPSADPRP  3.21
